{"source": "patent US7271245B2", "about": "“Methods and compositions for inhibition of metastasis” (The Scripps Research Institute, priority 2004, dated 2007)", "molecules": {"B1": {"name": "LM609: function blocking antibody against integrin αvβ3 (antibody, V domains shown)", "VH": "EVQLEESGGGLVKPGGSLKLSCAASGFAFSSYDMSWVRQIPEKRLEWVAKVSSGGGSTYYLDTVQGRFTISRDNAKNTLYLQMSSLNSEDTAMYYCARHNYGSFAYWGQGTLVTVSA", "VL": "ELVMTQTPATLSVTPGDSVSLSCRASQSISNHLHWYQQKSHESPRLLIKYASQSISGIPSRFSGSGSGTDFTLSINSVETEDFGMYFCQQSNSWPHTFGGGTKLEIKRA"}, "B2": {"name": "Bc-20: non-RGD containing, non-function blocking anti αv scFv (protein)", "scFv": "MAQVQLVQSGGGLVQPGGSLRLSCAASGFTFSSYWMSWVRQAPGKGLEWVANIKQDGSEKYYVDSVKGRFTISRDNAKNSLYLQMNSLRAEDTAVYYCARDGGFAGWAFDIWGQGTTVTVSSGGGGSGGGGSGGGGSDIQMTQSPSALSASVGDRVTITCRASQGLDNYLAWYQLQPGKAPKLLIYDAFTLQSGVPSRFSGGGSGTDFTLTISSLQPEDFATYFCQQLQSYPLTFGGGTKVEIKRGLGGLVDYKDDD"}}, "key": {"[1]": {"test_system": "BMS human breast cancer cells", "experiment": "Tumor cell adhesion under stationary conditions", "format": "cell-based", "conditions": "200 μM peptide, 30 min at 37° C.", "protocol": "(§1) FIGS. 3A, 3B, 3C, 3D, 3E. scFv Bc-12 and Bc-15 inhibit αvβ3 mediated adhesive breast cancer cell functions. (A) Adhesion of BMS human breast cancer cells to fibrinogen (Fg), vitronectin (VN) or type I collagen (Col I) in the absence or presence of 3 μM Bc-12, Bc-15 or their RGE mutants Mut-12, Mut-15, compared to 200 μM GRGDSPK peptide (SEQ ID NO: 11). Protein coating concentrations: 10 μg/ml (VN, Col I) or 20 μg/ml (Fg). Adhesion time: 30 min at 37° C. (B) Effect of scFvs on haptotactic BMS cell migration toward a fibrinogen substrate (16 hrs at 37° C. in transwell chambers with or without 2 μM Bc-12, Bc-15 or their RGE mutants Mut-12 or Mut-15, compared to 200 μM GRGDSPK peptide) (SEQ ID NO: 11). (C) Effect of scFvs on breast cancer cell arrest during blood flow. Metastatic BMS cells, labeled with hydroethidine, were suspended in human blood (anticoagulated with 50 nM PPACK) and perfused over a collagen I matrix at a venous wall shear rate of 50 s^−1. Under these conditions, breast cancer cells arrest by αvβ3 mediated binding to adherent, thrombus forming platelets. Tumor cell adhesion was quantified by image acquisition at 30 predefined positions during blood flow. Left: representative images of platelet signal (thrombi, green fluorescence) and tumor cell signal (red fluorescence) at identical x,y positions. Right: Number of arrested tumor cells in the presence of 3 μM non-function blocking anti αv scFv Bc-20 or function blocking anti αvβ3 scFvs Bc-12 or Bc-15. (D) scFv Bc-15 is internalized by human breast cancer cells and reduces cell proliferation. Left: confocal images of BMS cells incubated for 4 hrs with FITC-Bc-15 at 4° C. (binding) versus 37° C. (allowing internalization). Right: Phase contrast images of BMS cell cultures 4 days after seeding in the presence of 2 μM RGE containing scFv Mut-15, or RGD containing Bc-15. (E) Effect of scFv Bc-12 on the viability of matrix deprived BMS breast cancer cells in ultra-low-adhesion plates in the presence or absence of 3.7 μM scFv, or 14.36 μM camptothecin as apoptosis inducing control. Measurement of apoptosis was based on cytoplasmic histone-associated DNA fragments after 20 hrs.\nCell adhesion and migration. Tumor cell adhesion under stationary conditions was analyzed as detailed earlier (19). Adhesion buffer was Hanks balanced salt solution (HBSS) pH 7.4, 0.5% BSA, 1 mM MgCl2, 0.2 mM MnCl2. For inhibition, cells were incubated for 5 min at RT either with 3 μM scFv or 200 μM GRGDSPK (SEQ ID NO: 11) peptide, then plated in the presence of inhibitor and allowed to attach for 30 min at 37° C. Haptotactic tumor cell migration toward fibrinogen was analyzed in transwell chambers as detailed earlier. Rolli, M., et al., Proc. Natl. Acad. Sci. U.S.A 100: 9482-9487, 2003. […]"}, "[2]": {"test_system": "BMS human breast cancer cells", "experiment": "Haptotactic tumor cell migration toward fibrinogen (transwell)", "format": "cell-based", "conditions": "200 μM peptide, 16 hrs at 37° C.", "protocol": "as §1, with “(E) Effect of scFv Bc-12 on the viability of matrix deprived BMS breast cancer cells in ultra-low-adhesion plates in the presence or absence of 3.7 μM scFv, or 14.36 μM camptothecin as apoptosis inducing control. Measurement of apoptosis was based on cytoplasmic histone-associated DNA fragments after 20 hrs.” left out\nCell adhesion and migration. Tumor cell adhesion under stationary conditions was analyzed as detailed earlier (19). […] Haptotactic tumor cell migration toward fibrinogen was analyzed in transwell chambers as detailed earlier. […]"}, "[3]": {"test_system": "human melanoma cells", "conditions": "mouse model; cited from earlier work"}, "[4]": {"test_system": "integrin αvβ3", "experiment": "Flow cytometry, scFv binding to human tumor cell panel", "protocol": "FIGS. 1A, 1B, 1C. Patient derived scFvs Bc-12 and Bc-15 recognize tumor cell integrin αvβ3 in a cation and activation dependent manner. Flow cytometric analyses in TBS with or without 1 mM Ca^2+, 1 mM Mg^2+, or 0.2 mM Mn^2+ as indicated. Binding of soluble scFv detected after incubation with anti-Flag M2 murine mAb followed by FITC-anti mouse F(ab′)2. (A) scFv binding to human melanoma cells (M21: αvβ3 plus other αv integrins) (M21-LIIb: αIIbβ3, no αv integrins) or lung adenocarcinoma cells (UCLA-P3: αv integrins, no β3 integrin). (B) scFv binding to M21 melanoma cells. (C) scFv binding to variants of MDA-MB 435 human breast cancer cells that lack (β^3−) or express αvβ3 either in a non-activated (β3WT, ParentCo) or activated form (β3D723R, Bone, Lung, and BMS metastatic cancer cells isolated from breast cancer patient blood).\nFlow cytometry. scFv binding to human tumor cells was analyzed by flow cytometry, initially with cloned scFv phage and then with purified scFv protein. Per sample, 2×10^5 tumor cells were blocked with goat serum and incubated either with scFv phage (2-5×10^10) (1 h at RT) followed by mouse anti-M13 mAb (Serotec) (30 min on ice) and goat FITC-anti mouse (Pierce) (30 min on ice), or with purified scFv (1.25 to 40 μg/ml, routinely 10 to 15 μg/ml) (45 min on ice), followed by mouse anti-FLAG mAb M2 (Sigma) (30 min on ice) and goat FITC-anti mouse. Binding/washing buffer was TBS with or without divalent cations (1 mM Ca^2+, 1 mM Mg^2+, 0.2 mM Mn^2+). Alternatively, tumor cells were washed in 10 ml of plasma (prepared freshly from human blood anticoagulated with 50 nM D-Phe-D-Pro-D-arginyl chloromethyl ketone, PPACK, Felding-Habermann et al., J. Biol. Chem. 271: 5892-5900, 1996), resuspended in plasma and then incubated sequentially, without washing, with purified scFv (45 min on ice), followed by anti-FLAG M2 (30 min on ice) and FITC-anti mouse (30 min on ice). All samples were counter stained with propidium iodide (PI) and analyzed on a Becton-Dickinson FACScan, with live gate set to exclude PI positive cells.\nTo generate therapeutic reagents that specifically react with activated αvβ3, a phage display library of single chain antibody fragments (scFv) was exploited. This library was derived from cancer patient blood lymphocyte cDNA libraries and allowed us to test the hypothesis that the expressed immune repertoire contains antibodies that recognize integrin αvβ3, and distinguish between its activated and non-activated forms. Mao et al., Proc. Natl. Acad. Sci. U.S.A 96: 6953-6958, 1999. A subtractive panning approach was designed based on variants of MDA-MB 435 human breast cancer cells. […] Apparently, these cells are selected during metastasis, as variant cells isolated from lung and bone metastases in immune deficient mice express constitutively activated αvβ3. To establish a cell population that uniformly expresses non-activated αvβ3, MDA-MB 435 parental cells were cloned by limiting dilution, and clones tested for αvβ3 functionality. […] A cell line, MDA-MB 435 Lung-Lung, was established which expressed αvβ3 in a constitutively activated form. This variant stems from a lung metastase of an immune deficient mouse whose mammary fat pad had been injected with parental MDA-MB 435 cells. Felding-Habermann et al., Proc. Natl. Acad. Sci. U.S.A 98: 1853-1858, 2001; Rolli et al., Proc. Natl. Acad. Sci. U.S.A 100: 9482-9487, 2003. To enrich for the ability to colonize the lung from the blood stream, the Lung variant was subsequently injected intravenously, and tumor cells cultured 3 weeks later from the excised lung. Parent Combo cells were used to subtract the scFv phage library to eliminate antibodies against antigens shared by the MDA-MB 435 cell variants. […]"}, "[5]": {"test_system": "BMS breast cancer cells", "experiment": "Tumor cell arrest during blood flow", "format": "cell-based", "conditions": "3 μM scFv, human blood, collagen I matrix, shear rate 50 s^−1", "protocol": "FIGS. 3A, 3B, 3C, 3D, 3E. scFv Bc-12 and Bc-15 inhibit αvβ3 mediated adhesive breast cancer cell functions. (A) Adhesion of BMS human breast cancer cells to fibrinogen (Fg), vitronectin (VN) or type I collagen (Col I) in the absence or presence of 3 μM Bc-12, Bc-15 or their RGE mutants Mut-12, Mut-15, compared to 200 μM GRGDSPK peptide (SEQ ID NO: 11). Protein coating concentrations: 10 μg/ml (VN, Col I) or 20 μg/ml (Fg). Adhesion time: 30 min at 37° C. (B) Effect of scFvs on haptotactic BMS cell migration toward a fibrinogen substrate (16 hrs at 37° C. in transwell chambers with or without 2 μM Bc-12, Bc-15 or their RGE mutants Mut-12 or Mut-15, compared to 200 μM GRGDSPK peptide) (SEQ ID NO: 11). (C) Effect of scFvs on breast cancer cell arrest during blood flow. Metastatic BMS cells, labeled with hydroethidine, were suspended in human blood (anticoagulated with 50 nM PPACK) and perfused over a collagen I matrix at a venous wall shear rate of 50 s^−1. Under these conditions, breast cancer cells arrest by αvβ3 mediated binding to adherent, thrombus forming platelets. Tumor cell adhesion was quantified by image acquisition at 30 predefined positions during blood flow. Left: representative images of platelet signal (thrombi, green fluorescence) and tumor cell signal (red fluorescence) at identical x,y positions. […]\nTumor cell arrest during bloodflow. Breast cancer cell arrest during blood flow and interaction with platelets was measured as described. […] Adhesive events and cell interactions were visualized and recorded by fluorescence video microscopy and quantified by image acquisition at 30 predefined positions followed by computerized image analysis (MetaMorph, Universal Imaging). Tumor cells were stained with hydroethidine (red fluorescence) (20 μg/ml, 30 min, 37° C.), washed, and mixed with blood containing 10 μM mepacrine (green fluorescence). Blood cells, tumor cells, and platelets acquired green fluorescence and were visualized at 488/515 nm (excitation/emission). Tumor cells were identified by their unique red fluorescence at 543/590 nm. […]"}}, "data": [{"molecule": "GRGDSPK [a fibronectin derived peptide, reference compound]", "values": [{"measurement": "adhesion to immobilized fibrinogen", "setting": "[1]", "value": "extent of inhibition by 3 μM scFv was similar to that observed with 200 μM GRGDSPK"}, {"measurement": "fibrinogen directed migration", "setting": "[2]", "value": "This effect was similar to that seen with 200 μM GRGDSPK"}]}, {"molecule": "B1", "values": [{"measurement": "metastatic activity of human melanoma cells", "setting": "[3]", "value": "inhibited metastatic activity of human melanoma cells in a mouse model"}]}, {"molecule": "B2", "values": [{"measurement": "reactivity with human tumor cells that express or lack αvβ3", "setting": "[4]; M21, M21-LIIb, UCLA-P3 cells, flow cytometry", "value": "reacted with αv positive cells, regardless of the associated β subunit"}, {"measurement": "cation requirement of binding", "setting": "[4]; TBS with or without divalent cations", "value": "did not require divalent metal cations"}, {"measurement": "breast cancer cell arrest during blood flow", "setting": "[5]", "value": "no effect"}]}]}
